Laboratory results as given in US20250277048A1.

Biological target: human CD40 (hCD40) expressed on cells (human) (UniProt P25942)
Assay: cell-based or functional assay

human CD40 (hCD40) expressed on cells (human), sequence (P25942 21-277): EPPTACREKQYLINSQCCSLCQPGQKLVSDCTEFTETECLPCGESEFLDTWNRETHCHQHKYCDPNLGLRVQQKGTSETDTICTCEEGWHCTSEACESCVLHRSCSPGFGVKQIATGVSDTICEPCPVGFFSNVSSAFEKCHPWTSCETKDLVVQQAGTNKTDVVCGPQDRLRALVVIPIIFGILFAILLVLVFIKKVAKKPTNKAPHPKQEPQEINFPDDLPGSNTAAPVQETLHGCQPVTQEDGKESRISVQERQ

EC50 of activation, Raji/NFkB-luc: 0.691 nM
EC50 of activation, Ramos.2G6.4C10/NFkB-luc: 0.436 nM
EC50 of activation, THP-1/NFkB-luc: 1.47 nM
Substance: human CD40L (soluble, used in the cell assays) (from UniProt P29965 113-261) (ligand)
